# Literature values as cited in patent US11963996B2, “Method of treating knee pain” (ORTHOTROPHIX, Inc., priority 2018, dated 2024).
# Experiments:
# [1] = system: OA patients; conditions: human, in vivo; cited from earlier work
# [2] = system: human osteoblastic mesenchymal stem cells; conditions: cited from earlier work
# [3] = system: subjects with knee OA; conditions: vs placebo, cited from earlier work
molecule,measurement,setting,value
N#Cc1c(N(CC(=O)[O-])CC(=O)[O-])sc(C(=O)[O-])c1CC(=O)[O-].[Sr+2].[Sr+2] [strontium ranelate],Risk of myocardial infarction,[1],increase the risk of myocardial infarction
rat orthologue: TPX-100 orthologue PDLLVRGDNDVPPFSGDGQHFMH (Rat/Mouse),Tritium-thymidine incorporation,[2],promote tritium-thymidine incorporation
"FGF-18: Fibroblast Growth Factor-18, a.k.a. Sprifermin, candidate DMOAD, a putative chondrocyte growth factor (protein, UniProt O76093 28-207, looked up, sprifermin, Fibroblast Growth Factor-18, a.k.a; Sprifermin, candidate DMOAD, a putative chondrocyte growth factor) Fibroblast growth factor 18: EENVDFRIHVENQTRARDDVSRKQLRLYQLYSRTSGKHIQVLGRRISARGEDGDKYAQLLVETDTFGSQVRIKGKETEFYLCMNRKGKLVGKPDGTSKECVFIEKVLENNYTALMSAKYSGWYVGFTKKGRPRKGPKTRENQQDVHFMKRYPKGQPELQKPFKYTTVTKRSRRIRPTHPA",Clinical benefit (WOMAC),[3]; 24 months,no difference in clinical benefit was detected in any treatment group when compared with placebo
same,Clinical benefit,[3]; 36 months,failed to demonstrate clinical benefit compared with the placebo-treated group
same,Tibiofemoral cartilage thickness by MRI,"[3]; three once-weekly IA injections, repeated at months 6, 12, 18, 24 months",dose-dependent increases in tibiofemoral cartilage thickness compared with the placebo group
